Test results reported in publication PMC12299175 (2025).

Target: synthetic peptide of stem helix (1141-1161) of SARS-CoV-2 WT S with biotin at C terminus (SARS-CoV-2, UniProt P0DTC2 1141-1161, biotin at C terminus)
Assay: BLI

B1: S2P6 recombinant mAb with human IgG1 constant region (antibody, V domains shown)
VH: EVQLVQSGAEVKKPGASVKVSCKASGYTFTSQYMHWVRQAPGQGLEWIGIINPSGVHTSYAQKFQGRVTLTRDTSTSTLYMELSSLRSEDTAVYYCARGSPKGAFDYWGQGTLVTVSS
VL: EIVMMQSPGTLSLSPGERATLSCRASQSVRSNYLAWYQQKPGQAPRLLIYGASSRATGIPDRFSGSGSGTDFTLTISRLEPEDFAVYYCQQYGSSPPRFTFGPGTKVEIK
Work on B1 yielded a koff of less than 1e-06 s⁻¹.
